Measurements published in patent US20230174598A1 (UNIVERSITY OF FLORIDA RESEARCH FOUNDATION, published 2023).

B1: A113C arrestin-1 (bovine, His(6), C63A/C143A) labeled with monobromobimane (other)
chain: MHHHHHHKANKPAPNHVIFKKISRDKSVTIYLGKRDYIDHVERVEPVDGVVLVDPELVKGKRVYVSLTAAFRYGQEDIDVMGLSFRRDLYFSQVQVFPPVGASGATTRLQESLIKKLGCNTYPFLLTFPDYLPCSVMLQPAPQDVGKSAGVDFEIKAFATHSTDVEEDKIPKKSSVRLLIRKVQHAPRDMGPQPRAEASWQFFMSDKPLRLAVSLSKEIYYHGEPIPVTVAVTNSTEKTVKKIKVLVEQVTNVVLYSSDYYIKTVAAEEAQEKVPPNSSLTKTLTLVPLLANNRERRGIALDGKIKHEDTNLASSTIIKEGIDKTVMGILVSYQIKVKLTVSGLLGELTSSEVATEVPFRLMHPQPEDPDTAKESFQDENFVFEEFARQNLKDAGEYKEEKTDQEAAMDE
modifications: monobromobimane (mBBr) on Cys 113
notes: Cysteine-substitution mutant, made in Pichia pastoris

Target: bovine enolase-1 (bovine, UniProt Q9XSJ4 1-434, AlexaFluor-546 maleimide on reactive cysteines (pulldown assay only; unlabeled in the quench and activity assays))
Assay: KI quench protection of mBBr-labeled arrestin-1; 0.25 µM arrestin-1, 5 µM (20-fold) enolase-1
Protocol: C. Quenching assay. Cysteine mutants of arrestin-1 were labeled with monobromobimane (mBBr, ThermoFisher), reacting the arrestin-1 protein with 100-fold molar excess of the fluorescent label for two hours at room temperature. The unreacted label was removed by dialyzing against three sequential changes of 500-volumes of LAP200 buffer. […] Fluorescence quenching of the mBBr fluorophore was performed using 0.25 μM mBBr-labeled arrestin-1 with 100 mM potassium iodide in the presence or absence of 5 μM bovine enolase-1 that had been heterologously expressed and purified as previously described for arrestin-1, monitoring fluorescence emission at 470 nm. To determine the degree to which enolase-1 shielded a residue from quenching by potassium iodide, a protection factor was calculated as follows: […]
C. Mapping interaction of arrestin-1 with enolase-1. […] The fluorescence emission of the mBBr-labeled arrestin-1 with and without potassium iodide was measured to determine the range of quenching by KI. The fluorescence emission quench by KI with and without enolase-1 was then measured. A quench protection factor was calculated as described in the experimental procedures (Table 2). […] When mapped onto the surface of the arrestin-1 structure, these residues largely mapped to a single surface along the “bottom” of the arrestin protein (FIG. 2B).

Chain of bovine enolase-1 (Q9XSJ4 whole entry): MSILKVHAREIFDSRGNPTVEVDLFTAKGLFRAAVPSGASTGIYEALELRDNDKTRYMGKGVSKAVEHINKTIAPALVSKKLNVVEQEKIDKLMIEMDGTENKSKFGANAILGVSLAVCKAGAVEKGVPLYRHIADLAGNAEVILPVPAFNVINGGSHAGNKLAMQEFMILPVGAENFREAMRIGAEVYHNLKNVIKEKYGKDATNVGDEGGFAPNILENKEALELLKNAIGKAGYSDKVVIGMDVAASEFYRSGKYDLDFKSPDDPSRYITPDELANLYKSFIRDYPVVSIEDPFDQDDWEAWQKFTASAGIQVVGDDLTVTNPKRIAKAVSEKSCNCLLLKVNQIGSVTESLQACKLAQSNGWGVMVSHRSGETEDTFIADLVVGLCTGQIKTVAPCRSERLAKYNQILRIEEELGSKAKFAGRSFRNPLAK

Molecule	F(A+E+K) (fluorescence with enolase-1 and KI)	Pf (quench protection factor)
S251C arrestin-1 (bovine, His(6), C63A/C143A) labeled with monobromobimane (from UniProt P08168 2-404)	730	0.011
I72C arrestin-1 (bovine, His(6), C63A/C143A) labeled with monobromobimane (from UniProt P08168 2-404)	630	0.002
R18C arrestin-1 (bovine, His(6), C63A/C143A) labeled with monobromobimane (from UniProt P08168 2-404)	963	-0.005
D317C arrestin-1 (bovine, His(6), C63A/C143A) labeled with monobromobimane (from UniProt P08168 2-404)	11500	0.002
W194C arrestin-1 (bovine, His(6), C63A/C143A) labeled with monobromobimane (from UniProt P08168 2-404)	14000	0.012
S199C arrestin-1 (bovine, His(6), C63A/C143A) labeled with monobromobimane (from UniProt P08168 2-404)	636	-0.001
E393C arrestin-1 (bovine, His(6), C63A/C143A) labeled with monobromobimane (from UniProt P08168 2-404)	953	0.134
Y25C arrestin-1 (bovine, His(6), C63A/C143A) labeled with monobromobimane (from UniProt P08168 2-404)	600	-0.011
S86C arrestin-1 (bovine, His(6), C63A/C143A) labeled with monobromobimane (from UniProt P08168 2-404)	6160	0.073
V139C arrestin-1 (bovine, His(6), C63A/C143A) labeled with monobromobimane (from UniProt P08168 2-404)	778	-0.001
S231C arrestin-1 (bovine, His(6), C63A/C143A) labeled with monobromobimane (from UniProt P08168 2-404)	695	0.002
Y125C arrestin-1 (bovine, His(6), C63A/C143A) labeled with monobromobimane (from UniProt P08168 2-404)	14000	0.012
B1	3460	0.109
